Laboratory results from article PMC5441561 (Science (New York, N.Y.), 2017).
Read-outs that look alike come from different tables or passages of the source.

B1: KaiA_(cryst) (domain or fragment, Thermosynechococcus elongatus)
chain: SNVDPQHRLSQKLKERLGYLGVYYKRDTAFFFRRMSPADKRKLLDELRSIYRTIVLEYFNTDAKVNERIDEFVSKAFFADISVSQVLEIHVELMDTFSKQLKLEGRSEDILLDYRLTLIDVIAHLSEMYRRSIPREV
B2: KaiC_(S431E) (enzyme, Thermosynechococcus elongatus, UniProt Q79V60 1-518, looked up)
chain: MTNLPEHQSSPTEQSSAEVKKIPTMIEGFDDISHGGLPQGRTTLVSGTSGTGKTLFAVQFLYNGITIFNEPGIFVTFEESPQDIIKNALSFGWNLQSLIDQGKLFILDASPDPDGQEVAGDFDLSALIERIQYAIRKYKATRVSIDSVTAVFQQYDAASVVRREIFRLAFRLKQLGVTTIMTTERVDEYGPVARFGVEEFVSDNVVILRNVLEGERRRRTVEILKLRGTTHMKGEYPFTINNGINIFPLGAMRLTQRSSNVRVSSGVKTLDEMCGGGFFKDSIILATGATGTGKTLLVSKFLETGCQQGERALLFAYEESRAQLSRNASSWGIDFEELERRGLLRIICAYPESAGLEDHLQIIKSEIADFKPSRVAIDSLSALARGVSNNAFRQFVIGVTGFAKQEEITGFFTNTTDQFMGSNSITESHIETITDTILLLQYVEIRGEMSRAINVFKMRGSWHDKGIREYVITEKGAEIRDSFRNFEGIISGTPTRISVDEKTELARIAKGMQDLESE

Experiments:
crystal structure [1] = biological target: the molecule itself; test: crystal structure
crystal structure [2] = biological target: the molecule itself; test: crystal structure; remark: listed apart in the source

| Protein | stoichiometry N (crystal structure [1]) | stoichiometry N (crystal structure [2]) |
| --- | --- | --- |
| B1 | 2 |  |
| B2 |  | 6 |
